# Experimental data from patent US20120010151A1.
# Where no end group is shown, it is not given here. The star is where a group is joined. Boc = CC(C)(C)OC(=O)*
# Target: Wnt-5a receptors (on A2058 melanoma cells)
# Assay: cell-based or functional assay
binder,measurement,value
Boc-MDGCEL [Box5 (Wnt-5a-derived N-butyloxycarbonyl hexapeptide Met-Asp-Gly-Cys-Glu-Leu)],"inhibition of the Wnt-5a-induced Ca2+ signal (fura-2, A2058 melanoma cells, 100 uM Box5, 0.1 ug/ml Wnt-5a)",> 70%
